The labels stand for the following.
B1: C105 (antibody, V domains shown)
VH: QVQLVESGGGLIQPGGSLRLSCAASGFTVSSNYMSWVRQAPGKGLEWVSVIYSGGSTYYADSVKGRFTISRDNSKNTLYLQMNSLRAEDTAVYYCARGEGWELPYDYWGQGTLVTVSS
VL: QSALTQPPSASGSPGQSVTISCTGTSSDVGGYKYVSWYQQHPGKAPKLMIYEVSKRPSGVPDRFSGSKSGNTASLTVSGLQAEDEADYYCSSYEGSNNFVVFGGGTKLTVL
B2: 2-4 (antibody, V domains shown)
VH: QVQLVQSGAEVKKPGASVKVSCKASGYTFTGYYMHWVRQAPGQGLEWMGWINPNSGGTNYTQMFQGRVTMTRDTSISTAYMEVSRLRSDDTAVYYCARDRSWAVVYYYMDVWGKGTTVTVSS
VL: QSALTQPPSASGSPGQSVTISCTGTSSDVGGYNYVSWYQQHPGKAPKLMIYEVSKRPSGVPDRFSGSKSGNTASLTVSGLQAEDEADYYCSSYAGSNNLVFGGGTKLTVL
B3: 4A8 (antibody, V domains shown)
VH: EVQLVESGAEVKKPGASVKVSCKVSGYTLTELSMHWVRQAPGKGLEWMGGFDPEDGETMYAQKFQGRVTMTEDTSTDTAYMELSSLRSEDTAVYYCATSTAVAGTPDLFDYYYGMDVWGQGTTVTVSS
VL: EIVMTQSPLSSPVTLGQPASISCRSSQSLVHSDGNTYLSWLQQRPGQPPRLLIYKISNRFSGVPDRFSGSGAGTDFTLKISRVEAEDVGVYYCTQATQFPYTFGQGTKVDIK
B4: REGN10987 (antibody, V domains shown)
VH: QVQLVESGGGVVQPGRSLRLSCAASGFTFSNYAMYWVRQAPGKGLEWVAVISYDGSNKYYADSVKGRFTISRDNSKNTLYLQMNSLRTEDTAVYYCASGSDYGDYLLVYWGQGTLVTVSS
VL: QSALTQPASVSGSPGQSITISCTGTSSDVGGYNYVSWYQQHPGKAPKLMIYDVSKRPSGVSNRFSGSKSGNTASLTISGLQSEDEADYYCNSLTSISTWVFGGGTKLTVL
B5: EY6A (antibody, V domains shown)
VH: EVQLVESGGGVVQPGRSLRLSCAASAFTFSSYDMHWVRQAPGKGLEWVAVISYDGSNKYYADSVKGRFTISRDNSKNTLYLQMNSLRAEDTAVYYCAKDGGKLWVYYFDYWGQGTLVTVSS
VL: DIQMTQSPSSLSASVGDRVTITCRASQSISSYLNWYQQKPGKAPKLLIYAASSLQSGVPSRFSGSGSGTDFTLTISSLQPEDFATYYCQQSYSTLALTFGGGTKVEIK
B6: CC12.3 (antibody, V domains shown)
VH: QVQLVESGGGLIQPGGSLRLSCAASGFTVSSNYMSWVRQAPGKGLEWVSVIYSGGSTFYADSVKGRFTISRDNSKSTLYLQMNSLRVEDTAVYYCARDFGDFYFDYWGQGTLVTVSS
VL: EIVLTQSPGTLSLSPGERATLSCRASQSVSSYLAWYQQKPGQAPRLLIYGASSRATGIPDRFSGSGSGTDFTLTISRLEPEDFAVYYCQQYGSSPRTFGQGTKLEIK
B7: B38 (antibody, V domains shown)
VH: EVQLVESGGGLVQPGGSLRLSCAASGFIVSSNYMSWVRQAPGKGLEWVSVIYSGGSTYYADSVKGRFTISRHNSKNTLYLQMNSLRAEDTAVYYCAREAYGMDVWGQGTTVTVSS
VL: DIVMTQSPSFLSASVGDRVTITCRASQGISSYLAWYQQKPGKAPKLLIYAASTLQSGVPSRFSGSGSGTEFTLTISSLQPEDFATYYCQQLNSYPPYTFGQGTKLEIK
B8: REGN10933 (antibody, V domains shown)
VH: QVQLVESGGGLVKPGGSLRLSCAASGFTFSDYYMSWIRQAPGKGLEWVSYITYSGSTIYYADSVKGRFTISRDNAKSSLYLQMNSLRAEDTAVYYCARDRGTTMVPFDYWGQGTLVTVSS
VL: DIQMTQSPSSLSASVGDRVTITCQASQDITNYLNWYQQKPGKAPKLLIYAASNLETGVPSRFSGSGSGTDFTFTISGLQPEDIATYYCQQYDNLPLTFGGGTKVEIK
B9: LCA60 (antibody, V domains shown)
VH: EVQLLESGGGLVKPGGSLRLSCEASGLTFSNVWMSWVRQAPGKGLEWVGRIKRKSEGATTDYGAPVKGRFTLSRDDSKNTVYLQMNSLKIDDTAVYYCSTLTRGGDVWSSSYYFDYWGQGALVTVSS
VL: QSALTQPASVSGSPGQSITISCTGTSSDVGTYDLVSWYQQHPGKSPKLMIYADIKRPSGVSHRFSGSKSGNTASLTISGLQSADEADYYCCLYAGSSTSVIFGGGTKVT
notes: also called MERS nAb LCA60
B10: CB6H-XG83L (antibody, V domains shown)
VH: EVQLVESGGGLVQPGGSLRLSCAASGFTVSSNYMSWVRQAPGKGLEWVSVIYSGGSTFYADSVKGRFTISRDNSMNTLFLQMNSLRAEDTAVYYCARVLPMYGDYLDYWGQGTLVTVSS
VL: QSVLTQPPSVSGAPGQRVTISCTGSSSNIGAGYDVHWYQQLPGTAPKLLIYGDSNRPSGVPDRFSGSKSGTSASLAITGLQAEDEADFYCQSYDSSLSTSIFGGGTKLTVL
B11: CB6 (antibody, V domains shown)
VH: EVQLVESGGGLVQPGGSLRLSCAASGFTVSSNYMSWVRQAPGKGLEWVSVIYSGGSTFYADSVKGRFTISRDNSMNTLFLQMNSLRAEDTAVYYCARVLPMYGDYLDYWGQGTLVTVSS
VL: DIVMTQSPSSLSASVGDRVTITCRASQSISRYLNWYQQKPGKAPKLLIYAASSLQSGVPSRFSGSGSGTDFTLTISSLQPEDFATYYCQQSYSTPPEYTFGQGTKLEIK

In the first assay the target is T1, SARS-CoV-2 RBD protein (321–591) (SARS-CoV-2, Wuhan-Hu-1 (MN908947), UniProt P0DTC2). The assay is described as follows: ELISA. As to conditions: one partner purified. Background: ELISA stands for enzyme-linked immunosorbent assay.
Consider B1, for which the binding result is on record as “binds”.

Regarding B2, the binding result was “binds”.

Take B3: the binding result was “no binding”.

Take B4: the binding result was “binds”.

In the case of B5, the binding result is recorded as “binds”.

For B6, the binding result is listed as “binds”.

In the case of B7, the binding result is on record as “binds”.

As for B8, the binding result was “binds”.

As to B9, the binding result is “no binding”.

The target of the next assay is T1, SARS-CoV-2 RBD protein (321–591). Briefly: SPR. As to conditions: both partners purified.
With B10, binding was characterised by a dissociation constant (Kd) of 0.58 nM. In other words, the sub-nanomolar range.

B11: binding was put at a Kd of 43.8 nM.

For another assay the target is unchanged. Briefly: cell-based or functional assay.
Conditions: not given
In the case of B10, the “IC50 of neutralisation of authentic SARS-CoV-2 on Vero E6 cells (CPE assay)” value stood at 1.1 µg/mL.

For the origin of these results see publication PMC8442604 (Frontiers in Immunology, 2021).
